# Measured values as given in patent US20210115447, “NUCLEIC ACID APTAMERS TARGETING LYMPHOCYTE ACTIVATION GENE 3 (LAG-3) AND USES THEREOF” (Oneness Biotech Co., Ltd., published 2021).
# T1: LAG-3 (lymphocyte activation gene 3) (Homo sapiens, UniProt P18627 P18627:23-450)
# T1 sequence: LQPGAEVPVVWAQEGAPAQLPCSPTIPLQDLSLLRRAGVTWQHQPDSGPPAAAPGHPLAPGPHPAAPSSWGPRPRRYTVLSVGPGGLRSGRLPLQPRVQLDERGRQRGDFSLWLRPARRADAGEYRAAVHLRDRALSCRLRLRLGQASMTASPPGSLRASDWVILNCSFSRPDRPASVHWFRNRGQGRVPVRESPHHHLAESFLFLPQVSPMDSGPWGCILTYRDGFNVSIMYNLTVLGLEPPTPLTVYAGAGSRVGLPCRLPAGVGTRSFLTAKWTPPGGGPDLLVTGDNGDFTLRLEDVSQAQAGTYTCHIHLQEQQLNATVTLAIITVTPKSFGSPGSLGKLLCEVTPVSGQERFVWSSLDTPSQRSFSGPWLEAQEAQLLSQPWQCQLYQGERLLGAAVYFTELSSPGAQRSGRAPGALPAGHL
# What was measured:
# [1] = target: T1, LAG-3 (lymphocyte activation gene 3); assay: pulldown; His-LAG-3 on nickel beads, qPCR; conditions: tags: His-tagged, attached to nickel coated beads or plate wells; label: 5'-biotin
# Procedure: (§1) To directly test binding of LAG-3 aptamers to LAG-3, in vitro binding assays were performed using His-tagged recombinant LAG-3 attached to nickel coated beads or nickel coated wells of a plate. Bound LAG-3 aptamers were eluted and detected by qPCR. Using the bead based assay, binding of aptamers B4 and B8 to recombinant LAG-3 increased in a concentration dependent manner. FIG. 1C. […] FIG. 1D.
# To identify the minimal sequence of aptamer B4 that is involved in binding to LAG-3, various truncated versions of aptamer B4 were prepared and their binding activities to LAG-3 were investigated in the binding assays described herein, using R9R as a negative control. Aptamer sequences of these truncated versions of aptamer B4 and their dissociation constants (Kds) for binding to recombinant LAG-3 are shown in Table 2. Binding of aptamers B4, B4-SL2, B4-SL3, and B4-SL4 to recombinant LAG-3 increased in a concentration dependent manner. FIG. 1E. […] FIG. 1E.
# [2] = target: T1, LAG-3 (lymphocyte activation gene 3); assay: pulldown; concentration dependent; nickel beads, qPCR; conditions: tags: His-tagged, attached to nickel coated beads or plate wells
# Procedure: as §1
# [3] = target: T1, LAG-3 (lymphocyte activation gene 3); assay: pulldown; His-LAG-3 on nickel beads, bound aptamer eluted and detected by qPCR; conditions: tags: His-tagged, attached to nickel coated beads or plate wells; label: 5'-biotin
Binder,Kd [1],also measured
GCTAACTGGGGGGGGTTAGTTCAATACATGCGGGC (ssDNA) [5'Bio-B4-SL3],10.7 nM,–
B8 (ssDNA) DNA: TCCCTACGGCGCTAACTGGGGGGGGGTTAGACTTACACTCTTATTCGGCCACCGTGCTACAAC,–,binding result [2]: binds
CTGGGGGGGGTTAGTTCAATACATGCGGGCGGCCA (ssDNA) [5'Bio-B4-SL4],9.47 nM,–
5'Bio-B4 (ssDNA) DNA: TCCCTACGGCGCTAACTGGGGGGGGTTAGTTCAATACATGCGGGCGGCCACCGTGCTACAAC,–,Kd [3]: 38.1 nM
ACGGCGCTAACTGGGGGGGGTTAGTTCAATACATG (ssDNA) [5'Bio-B4-SL2],8.05 nM,–
